Assay results reported in paper PMC11724288.

Tests used:
[1] = target: TFIIICΔtail complex (S. cerevisiae TFIIIC with τ95 truncated at residue 593) (S. cerevisiae) (UniProt P34111); assay: mass photometry; TFIIICΔtail at 50 and 100 nM, with and without 85- and 120-bp tRNA^His DNA; 20 mM HEPES pH 8, 100 mM KCl, 2 mM MgCl2, 5 mM DTT
[2] = target: TFIIICΔtail complex (S. cerevisiae TFIIIC with τ95 truncated at residue 593) (S. cerevisiae) (UniProt P34111); assay: cryo-EM structure; τB–DNA dimer classes of dataset 1 (2 μM TFIIICΔtail with equimolar 85-bp tRNA^His DNA, 200 mM KCl); map with preferred orientation, no model deposited

stoichiometry N [1]: 2
stoichiometry N [2]: 2
Substance: TFIIICΔtail complex (S. cerevisiae TFIIIC with τ95 truncated at residue 593), P34111 1-1160; P33339 1-1025; P32367 1-593; Q06339 1-672; Q12308 1-588; Q12415 1-435
